The term Kd denotes the constant that tells how readily two partners part at equilibrium. A low value points to tighter binding. As usually defined, the koff is the first-order rate constant of dissociation. Higher therefore signals a short-lived complex. Usually kon stands for a measure of how fast the partners come together. A high value points to faster complex formation.

Results on two molecules are retold here after paper PMC3765318, “An efficient protocol for the purification and labeling of entire yeast septin rods from E.coli for quantitative in vitro experimentation” (BMC Biotechnology, 2013).

The target in data set [1] is T1, SNAP tagged septin rod labeled with BG-biotin (S. cerevisiae, UniProt P32458 1-415; P32468 1-407; P32457 1-520; P25342 1-322, biotin, covalently attached with BG-Biotin to the SNAP tag).
T1 construct: Cdc11, S. cerevisiae septin; ORF amplified by PCR from genomic DNA; Cdc12, S. cerevisiae septin; Cdc3, S. cerevisiae septin; Cdc10, S. cerevisiae septin; calculated molecular weight 432.5 kDa; also called septin rods; biotinylated septin rods; source: E. coli BL21(DE3), four subunits co-expressed, purified (IMAC, Resource Q anion exchange), labeled with BG-Biotin; not shown: S tag, N-terminal, …
The experiment in a line: SPR; Biacore X100; biotinylated SNAP tagged septin rods captured (about 100 RU) on an anti-biotin antibody coated CM5 chip; Bni5 0-1600 nM as analyte in MSP buffer (10 mM MES, 150 mM NaCl, 0.05% Tween 20, pH 7.4); KD from the analyte response plotted against concentration. To be noted: both partners purified. (SPR reads the build-up and loss of mass on a sensor chip optically.)

The target of data set [2] is T1, SNAP tagged septin rod labeled with …. The data set is described as follows: SPR; same dataset as a8; sensograms fitted with a two state reaction model (to compensate for background binding of Bni5 to the antibody-coated surface); contact 120 or 180 s, dissociation 600 s. To be noted: both partners purified.
Data set [3] concerns the molecule itself. The experiment in a line: co-sedimentation + other: fluorescence microscopy; 2 uM SNAP tagged rods labeled with BG-TMR, dialyzed into low salt buffer (50 mM NaCl, 50-200 mM Tris-HCl pH 8.0), 16 h at 4 C, pelleted at 100,000 g, on poly-L-lysine slides.

B1: Bni5 (natural protein, S. cerevisiae, UniProt P53890 1-448, looked up)
chain: MGLDQDKIKKRLSQIEIDINQMNQMIDENLQLVEPAEDEAVEDNVKDTGVVDAVKVAETALFSGNDGADSNPGDSAQVEEHKTAQVHIPTENEANKSTDDPSQLSVTQPFIAKEQITHTAIAIGDSYNSFVANSAGNEKAKDSCTENKEDGTVNIDQNRGEADVEIIENNDDEWEDEKSDVEEGRVDKGTEENSEIESFKSPMPQNNTLGGENKLDAELVLDKFSSANKDLDIQPQTIVVGGDNEYNHESSRLADQTPHDDNSENCPNRSGGSTPLDSQTKIFIPKKNSKEDGTNINHFNSDGDGQKKMANFETRRPTNPFRVISVSSNSNSRNGSRKSSLNKYDSPVSSPITSASELGSIAKLEKRHDYLSMKCIKLQKEIDYLNKMNAQGSLSMEDGKRLHRAVVKLQEYLDKKTKEKYEVGVLLSRHLRKQIDRGENGQFWIGTK
notes: Bni5, S. cerevisiae; BNI5 PCR amplified from genomic DNA, cloned in a pET15b derived expression plasmid; primers are in Additional file 1; also called purified Bni5 (analyte protein); 6his tagged Bni5; source: E. coli BL21(DE3), purified (IMAC, size exclusion chromatography)
On to B1, for which, in data set [1], the Kd was 313 nM. Moreover, in data set [2], binding was characterised by a dissociation constant (Kd) of 253 nM, the koff came out at 0.037 s⁻¹ and the kon was 51000 M⁻¹ s⁻¹.

B2: SNAP tagged septin rod labeled with BG-TMR (complex, S. cerevisiae)
chain 1: MSGIIDASSALRKRKHLKRGITFTVMIVGQSGSGRSTFINTLCGQQVVDTSTTILLPTDTSTEIDLQLREETVELEDDEGVKIQLNIIDTPGFGDSLDNSPSFEIISDYIRHQYDEILLEESRVRRNPRFKDGRVHCCLYLINPTGHGLKEIDVEFIRQLGSLVNIIPVISKSDSLTRDELKLNKKLIMEDIDRWNLPIYNFPFDEDEISDEDYETNMYLRTLLPFAIIGSNEVYEMGGDVGTIRGRKYPWGILDVEDSSISDFVILRNALLISHLHDLKNYTHEILYERYRTEALSGESVAAESIRPNLTKLNGSSSSSTTTRRNTNPFKQSNNINNDVLNPASDMHGQSTGENNETYMTREEQIRLEEERLKAFEERVQQELLLKRQELLQREKELREIEARLEKEAKIKQEE
chain 2: MSAATATAAPVPPPVGISNLPNQRYKIVNEEGGTFTVMLCGESGLGKTTFINTLFQTVLKRADGQQHRQEPIRKTVEIDITRALLEEKHFELRVNVIDTPGFGDNVNNNKAWQPLVDFIDDQHDSYMRQEQQPYRTKKFDLRVHAVLYFIRPTGHGLKPIDIETMKRLSTRANLIPVIAKADTLTAQELQQFKSRIRQVIEAQEIRIFTPPLDADSKEDAKSGSNPDSAAVEHARQLIEAMPFAIVGSEKKFDNGQGTQVVARKYPWGLVEIENDSHCDFRKLRALLLRTYLLDLISTTQEMHYETYRRLRLEGHENTGEGNEDFTLPAIAPARKLSHNPRYKEEENALKKYFTDQVKAEEQRFRQWEQNIVNERIRLNGDLEEIQGKVKKLEEQVKSLQVKKSHLK
chain 3: MSLKEEQVSIKQDPEQEERQHDQFNDVQIKQESQDHDGVDSQYTNGTQNDDSERFEAAESDVKVEPGLGMGITSSQSEKGQVLPDQPEIKFIRRQINGYVGFANLPKQWHRRSIKNGFSFNLLCVGPDGIGKTTLMKTLFNNDDIEANLVKDYEEELANDQEEEEGQGEGHENQSQEQRHKVKIKSYESVIEENGVKLNLNVIDTEGFGDFLNNDQKSWDPIIKEIDSRFDQYLDAENKINRHSINDKRIHACLYFIEPTGHYLKPLDLKFMQSVYEKCNLIPVIAKSDILTDEEILSFKKTIMNQLIQSNIELFKPPIYSNDDAENSHLSERLFSSLPYAVIGSNDIVENYSGNQVRGRSYPWGVIEVDNDNHSDFNLLKNLLIKQFMEELKERTSKILYENYRSSKLAKLGIKQDNSVFKEFDPISKQQEEKTLHEAKLAKLEIEMKTVFQQKVSEKEKKLQKSETELFARHKEMKEKLTKQLKALEDKKKQLELSINSASPNVNHSPVPTKKKGFLR
chain 4: MDPLSSVQPASYVGFDTITNQIEHRLLKKGFQFNIMVVGQSGLGKSTLINTLFASHLIDSATGDDISALPVTKTTEMKISTHTLVEDRVRLNINVIDTPGFGDFIDNSKAWEPIVKYIKEQHSQYLRKELTAQRERFITDTRVHAILYFLQPNGKELSRLDVEALKRLTEIANVIPVIGKSDTLTLDERTEFRELIQNEFEKYNFKIYPYDSEELTDEELELNRSVRSIIPFAVVGSENEIEINGETFRGRKTRWSAINVEDINQCDFVYLREFLIRTHLQDLIETTSYIHYEGFRARQLIALKENANSRSSAHMSSNAIQR
modifications: tetramethylrhodamine (TMR), covalently attached with BG-TMR to the SNAP tag
notes: Cdc11, S. cerevisiae septin; ORF amplified by PCR from genomic DNA; Cdc12, S. cerevisiae septin; Cdc3, S. cerevisiae septin; Cdc10, S. cerevisiae septin; also called SNAP tagged, TMR labeled septin filaments; TMR labeled septin filaments; source: E. coli BL21(DE3), four subunits co-expressed, purified (IMAC, Resource Q anion exchange), labeled with BG-TMR; copies: 2 + 2 + 2 + 2
As to B2, the binding result in data set [3] is “binds”.
